In patent publication US12467929:

Columns and labels:
[1] = molecular target: recombinant UBE3A protein (Homo sapiens (Human)) (UniProt Q05086); assay: 3-step Simoa; capture GTX; UBE3A 500 ng/ml
[2] = molecular target: recombinant UBE3A protein (Homo sapiens (Human)) (UniProt Q05086); assay: 2-step Simoa; capture GTX; UBE3A 31.3 ng/ml
[3] = molecular target: recombinant UBE3A protein (Homo sapiens (Human)) (UniProt Q05086); assay: 3-step Simoa; capture GTX; UBE3A 7.81 ng/ml
[4] = molecular target: recombinant UBE3A protein (Homo sapiens (Human)) (UniProt Q05086); assay: 2-step Simoa; capture GTX; UBE3A 0.488 ng/ml
[5] = molecular target: recombinant UBE3A protein (Homo sapiens (Human)) (UniProt Q05086); assay: Simoa head-to-head, Table 11; capture GTX; UBE3A 20.0 ng/ml
[6] = molecular target: recombinant UBE3A protein (Homo sapiens (Human)) (UniProt Q05086); assay: Simoa; capture GTX; 3E5 0.4 ug/ml; UBE3A 20.0 ng/ml
[7] = molecular target: recombinant UBE3A protein (Homo sapiens (Human)) (UniProt Q05086); assay: Simoa; capture GTX + helper beads; 3E5 0.2 ug/ml; UBE3A 20.0 ng/ml
[8] = molecular target: recombinant UBE3A protein (Homo sapiens (Human)) (UniProt Q05086); assay: Simoa; capture GTX; SBG 75 pm; UBE3A 0.160 ng/ml
[9] = molecular target: recombinant UBE3A protein (Homo sapiens (Human)) (UniProt Q05086); assay: Simoa; capture GTX + helper beads; 3E5 0.4 ug/ml; UBE3A 0.160 ng/ml
[10] = molecular target: recombinant UBE3A protein (Homo sapiens (Human)) (UniProt Q05086); assay: Simoa; capture GTX; SBG 100 pm; UBE3A 0.00128 ng/ml
[11] = molecular target: recombinant UBE3A protein (Homo sapiens (Human)) (UniProt Q05086); assay: Simoa; capture GTX, no helper beads; 3E5 0.1 ug/ml; UBE3A 0.0320 ng/ml
[12] = molecular target: recombinant UBE3A protein (Homo sapiens (Human)) (UniProt Q05086); assay: Simoa; capture GTX; 3E5 0.2 ug/ml; UBE3A 4.00 ng/ml
[13] = molecular target: recombinant UBE3A protein (Homo sapiens (Human)) (UniProt Q05086); assay: Simoa; capture GTX + helper beads; 3E5 0.4 ug/ml; UBE3A 0.00640 ng/ml
[14] = molecular target: recombinant UBE3A protein (Homo sapiens (Human)) (UniProt Q05086); assay: 3-step Simoa, 120 min bead step; capture GTX; UBE3A 4.00 ng/ml
[15] = molecular target: recombinant UBE3A protein (Homo sapiens (Human)) (UniProt Q05086); assay: Simoa; capture GTX, no helper beads; 3E5 0.2 ug/ml; UBE3A 0.00128 ng/ml
[16] = molecular target: recombinant UBE3A protein (Homo sapiens (Human)) (UniProt Q05086); assay: Simoa; capture GTX, no helper beads; 3E5 0.2 ug/ml; UBE3A 0.160 ng/ml
[17] = molecular target: recombinant UBE3A protein (Homo sapiens (Human)) (UniProt Q05086); assay: Simoa; capture GTX; 3E5 0.8 ug/ml; UBE3A 0.0320 ng/ml
[18] = molecular target: recombinant UBE3A protein (Homo sapiens (Human)) (UniProt Q05086); assay: Simoa; capture GTX, no helper beads; 3E5 0.4 ug/ml; UBE3A 0.800 ng/ml
[19] = molecular target: recombinant UBE3A protein (Homo sapiens (Human)) (UniProt Q05086); assay: Simoa; capture GTX; 3E5 0.8 ug/ml; UBE3A 0.160 ng/ml
[20] = molecular target: recombinant UBE3A protein (Homo sapiens (Human)) (UniProt Q05086); assay: Simoa; capture GTX; SBG 100 pm; UBE3A 0.00640 ng/ml

Sequence of UniProt Q05086 (Q05086 whole entry): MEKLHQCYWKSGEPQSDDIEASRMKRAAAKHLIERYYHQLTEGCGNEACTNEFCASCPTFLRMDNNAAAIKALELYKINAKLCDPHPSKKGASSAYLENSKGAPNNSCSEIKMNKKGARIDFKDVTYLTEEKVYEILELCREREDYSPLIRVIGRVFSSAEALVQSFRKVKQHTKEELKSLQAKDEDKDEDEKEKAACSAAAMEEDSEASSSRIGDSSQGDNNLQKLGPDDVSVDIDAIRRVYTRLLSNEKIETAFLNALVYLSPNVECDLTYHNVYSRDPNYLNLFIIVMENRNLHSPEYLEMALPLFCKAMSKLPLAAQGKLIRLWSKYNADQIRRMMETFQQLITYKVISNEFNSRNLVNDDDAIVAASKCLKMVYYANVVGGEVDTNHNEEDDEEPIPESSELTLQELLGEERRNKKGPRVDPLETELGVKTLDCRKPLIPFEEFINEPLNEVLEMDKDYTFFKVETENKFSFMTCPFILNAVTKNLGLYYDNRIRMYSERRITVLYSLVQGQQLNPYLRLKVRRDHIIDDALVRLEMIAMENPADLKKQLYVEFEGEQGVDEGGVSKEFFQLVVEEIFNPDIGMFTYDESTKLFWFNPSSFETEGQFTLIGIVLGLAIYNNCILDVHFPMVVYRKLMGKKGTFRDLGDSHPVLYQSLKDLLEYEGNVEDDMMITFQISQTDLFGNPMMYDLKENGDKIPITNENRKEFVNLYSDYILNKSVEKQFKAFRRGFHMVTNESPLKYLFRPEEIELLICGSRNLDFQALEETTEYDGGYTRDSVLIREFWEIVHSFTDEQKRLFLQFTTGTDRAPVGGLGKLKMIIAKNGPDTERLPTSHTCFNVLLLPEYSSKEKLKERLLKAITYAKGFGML

NB500-240 (Novus) (antibody)
AEB1 [1]: 0.229 | AEB2 [1]: 0.218 | Ave AEB [1]: 0.224 | Signal to Background [1]: 102 | AEB1 [2]: 0.141 | AEB2 [2]: 0.126 | Ave AEB [2]: 0.134 | Signal to Background [2]: 40.8 | AEB1 [3]: 0.0143 | AEB2 [3]: 0.0128 | Ave AEB [3]: 0.0135 | Signal to Background [3]: 6.2 | AEB1 [4]: 0.0073 | AEB2 [4]: 0.0069 | Ave AEB [4]: 0.0071 | Signal to Background [4]: 2.16

anti-UBE3A antibody 3E5 (SAB1404508-100 ug, Millipore-Sigma)
AEB1 [5]: 0.78 | AEB2 [5]: 0.821 | Ave AEB [5]: 0.8 | Signal to Background [5]: 97.8 | AEB1 [6]: 6.82 | AEB2 [6]: 7.9 | AEB3 [6]: 7.67 | Average AEB [6]: 7.46 | Signal to Background [6]: 119 | AEB1 [7]: 5.63 | AEB2 [7]: 5.39 | Average AEB [7]: 5.51 | Signal to Background [7]: 570 | AEB1 [8]: 0.0299 | AEB2 [8]: 0.0294 | AEB3 [8]: 0.03 | Average AEB [8]: 0.0298 | Signal to Background [8]: 6.82 | AEB1 [9]: 0.0913 | AEB2 [9]: 0.105 | Average AEB [9]: 0.0983 | Signal to Background [9]: 5.03 | AEB1 [10]: 0.0082 | AEB2 [10]: 0.0092 | AEB3 [10]: 0.0096 | Average AEB [10]: 0.009 | Signal to Background [10]: 1.07 | AEB1 [11]: 0.0108 | AEB2 [11]: 0.0159 | Average AEB [11]: 0.0133 | Signal to Background [11]: 2.33 | AEB1 [12]: 1.18 | AEB2 [12]: 2.32 | AEB3 [12]: 1.18 | Average AEB [12]: 1.56 | Signal to Background [12]: 39.7 | AEB1 [13]: 0.0326 | AEB2 [13]: 0.0263 | Average AEB [13]: 0.0294 | Signal to Background [13]: 1.51 | AEB1 [14]: 0.533 | AEB2 [14]: 0.55 | Ave AEB [14]: 0.542 | Signal to Background [14]: 318 | AEB1 [15]: 0.0099 | AEB2 [15]: 0.0139 | Average AEB [15]: 0.0119 | Signal to Background [15]: 1.23 | AEB1 [16]: 0.0675 | AEB2 [16]: 0.0686 | Average AEB [16]: 0.068 | Signal to Background [16]: 7.03 | AEB1 [17]: 0.144 | AEB2 [17]: 0.138 | AEB3 [17]: 0.152 | Average AEB [17]: 0.145 | Signal to Background [17]: 1.18 | AEB1 [18]: 0.335 | AEB2 [18]: 0.338 | Average AEB [18]: 0.337 | Signal to Background [18]: 17.2 | AEB1 [19]: 0.235 | AEB2 [19]: 0.263 | AEB3 [19]: 0.226 | Average AEB [19]: 0.241 | Signal to Background [19]: 1.97 | AEB1 [20]: 0.0098 | AEB2 [20]: 0.0098 | AEB3 [20]: 0.0111 | Average AEB [20]: 0.0103 | Signal to Background [20]: 1.22
